In paper PMC10681739, “High-throughput data and modeling reveal insights into the mechanisms of cooperative DNA-binding by transcription factor proteins”:

Key:
RUNX1 = RUNX1 (Homo sapiens, UniProt Q01196); experiment: gcPBM; 2 nM RUNX1; details: tags: N-terminal GST (pDEST15), kept (PMC6008103); label: surface-attached array probe
ETS1 = target: T1, ETS1 (Homo sapiens, UniProt P14921); experiment: gcPBM; 1 nM ETS1; details: tags: N-terminal GST (pDEST15), kept (PMC6008103); label: surface-attached array probe
T1 sequence: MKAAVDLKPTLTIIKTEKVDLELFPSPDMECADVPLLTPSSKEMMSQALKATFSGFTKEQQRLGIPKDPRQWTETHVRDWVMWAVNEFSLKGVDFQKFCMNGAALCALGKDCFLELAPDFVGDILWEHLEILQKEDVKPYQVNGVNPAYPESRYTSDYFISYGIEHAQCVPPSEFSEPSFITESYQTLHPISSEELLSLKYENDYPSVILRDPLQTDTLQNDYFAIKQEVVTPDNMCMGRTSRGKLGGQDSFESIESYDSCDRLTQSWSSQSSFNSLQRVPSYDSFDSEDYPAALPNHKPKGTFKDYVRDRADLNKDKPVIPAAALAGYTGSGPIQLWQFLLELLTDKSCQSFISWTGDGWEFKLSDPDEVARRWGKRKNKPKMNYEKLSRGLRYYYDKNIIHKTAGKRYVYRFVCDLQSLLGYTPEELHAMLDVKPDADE

RUNX1, sequence (Q01196 whole entry): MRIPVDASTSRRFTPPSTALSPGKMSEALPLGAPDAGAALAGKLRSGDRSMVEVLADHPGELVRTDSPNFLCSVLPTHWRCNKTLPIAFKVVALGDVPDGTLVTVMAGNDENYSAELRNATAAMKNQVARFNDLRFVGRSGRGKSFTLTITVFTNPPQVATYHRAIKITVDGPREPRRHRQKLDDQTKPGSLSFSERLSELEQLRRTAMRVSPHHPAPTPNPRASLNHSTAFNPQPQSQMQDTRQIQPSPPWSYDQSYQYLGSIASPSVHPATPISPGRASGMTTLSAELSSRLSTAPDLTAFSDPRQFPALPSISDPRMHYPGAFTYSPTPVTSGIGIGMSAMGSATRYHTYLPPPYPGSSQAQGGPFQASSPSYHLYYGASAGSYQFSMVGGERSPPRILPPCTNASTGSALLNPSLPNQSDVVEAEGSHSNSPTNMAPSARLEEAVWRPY

Binder	binding signal (RUNX1)	binding signal (ETS1)
Table S3 B row 943 (dsDNA) DNA 1: TGTTTGCGGTTTAGACCCCAAAGATTCATGTTGGTA DNA 2: TACCAACATGAATCTTTGGGGTCTAAACCGCAAACA	38700 PBM fluorescence, median of replicate spots	
Table S2 B row 2920 (dsDNA) DNA 1: GGCGCTAGGCTTCCGGATCGCGCTGGGCGGAGTTCA DNA 2: TGAACTCCGCCCAGCGCGATCCGGAAGCCTAGCGCC		2860 PBM fluorescence, median of replicate spots
Table S3 B row 1134 (dsDNA) DNA 1: GTTAAGCTGCGGTCAGACCTAAGGGAGGATCTGGCT DNA 2: AGCCAGATCCTCCCTTAGGTCTGACCGCAGCTTAAC	17500 PBM fluorescence, median of replicate spots	
Table S3 B row 2934 (dsDNA) DNA 1: TTTTTGTGGTTTAGCCCTCAGAGCTCCCTGCCAGAG DNA 2: CTCTGGCAGGGAGCTCTGAGGGCTAAACCACAAAAA	23200 PBM fluorescence, median of replicate spots	
Table S3 B row 474 (dsDNA) DNA 1: TCGTATTTGCGGTCAGCCTCTTACGTAATGTGCTTG DNA 2: CAAGCACATTACGTAAGAGGCTGACCGCAAATACGA	29200 PBM fluorescence, median of replicate spots	
Table S3 B row 3968 (dsDNA) DNA 1: CCGAGTTGCGGTTTCTCCGTTAGTGCTTACGGGTTG DNA 2: CAACCCGTAAGCACTAACGGAGAAACCGCAACTCGG	54300 PBM fluorescence, median of replicate spots	
Table S3 B row 2036 (dsDNA) DNA 1: GATTGCGGTTGGGACTTTCCCTAAGTCATTTGCTGT DNA 2: ACAGCAAATGACTTAGGGAAAGTCCCAACCGCAATC	53200 PBM fluorescence, median of replicate spots	
Table S3 B row 3420 (dsDNA) DNA 1: GGTTTGTGGTTTCCCCTTACTGTCTCCACTGCCTTC DNA 2: GAAGGCAGTGGAGACAGTAAGGGGAAACCACAAACC	28800 PBM fluorescence, median of replicate spots	
Table S3 B row 584 (dsDNA) DNA 1: GTCCTCTTTGTGGTTTCCATTTGCTTTGTGAAAGAG DNA 2: CTCTTTCACAAAGCAAATGGAAACCACAAAGAGGAC	34700 PBM fluorescence, median of replicate spots	
Table S3 B row 852 (dsDNA) DNA 1: CGGCAGCTTGCGGTTAGCCGTTCTTTCAGCCCAGTT DNA 2: AACTGGGCTGAAAGAACGGCTAACCGCAAGCTGCCG	48900 PBM fluorescence, median of replicate spots	
Table S3 B row 2580 (dsDNA) DNA 1: GTCGCTGCGGTTTTGGGGTTGGCATGCTGTCCTCTG DNA 2: CAGAGGACAGCATGCCAACCCCAAAACCGCAGCGAC	58800 PBM fluorescence, median of replicate spots	
Table S3 B row 1695 (dsDNA) DNA 1: GCACAAAACCGCACAAACAGCCTGAAGCACAGCCCC DNA 2: GGGGCTGTGCTTCAGGCTGTTTGTGCGGTTTTGTGC	16300 PBM fluorescence, median of replicate spots	
Table S3 B row 1191 (dsDNA) DNA 1: CTCTTGCGGTCAGGTCACGCCGCCTGAAGCCGCCCC DNA 2: GGGGCGGCTTCAGGCGGCGTGACCTGACCGCAAGAG	30900 PBM fluorescence, median of replicate spots	
Table S3 B row 1798 (dsDNA) DNA 1: CTCTCTTGCGGTTTGCAGCCAGATCACCTCCCATAC DNA 2: GTATGGGAGGTGATCTGGCTGCAAACCGCAAGAGAG	37400 PBM fluorescence, median of replicate spots	
Table S3 B row 3806 (dsDNA) DNA 1: TCAGTCTTGTGGTTAAGGGAGGCAGGGTACTGTTGG DNA 2: CCAACAGTACCCTGCCTCCCTTAACCACAAGACTGA	20500 PBM fluorescence, median of replicate spots	
Table S3 B row 1768 (dsDNA) DNA 1: TGGTTGTGGTTTGGAGATTCTGATGTCATTTGCTGT DNA 2: ACAGCAAATGACATCAGAATCTCCAAACCACAACCA	18000 PBM fluorescence, median of replicate spots	
Table S3 B row 3447 (dsDNA) DNA 1: TGATTGCGGTTTCGGTCGCTCTCCCGTGTTTGCCGG DNA 2: CCGGCAAACACGGGAGAGCGACCGAAACCGCAATCA	50800 PBM fluorescence, median of replicate spots	
Table S3 B row 3965 (dsDNA) DNA 1: GGAGAAACCGCAACTCGGAACTACGGGAACGGAGGA DNA 2: TCCTCCGTTCCCGTAGTTCCGAGTTGCGGTTTCTCC	26700 PBM fluorescence, median of replicate spots	
Table S3 B row 1866 (dsDNA) DNA 1: TCTGCGGTCAGCTGACTGTGCCAGAGTGCCGCGGGG DNA 2: CCCCGCGGCACTCTGGCACAGTCAGCTGACCGCAGA	16100 PBM fluorescence, median of replicate spots	
Table S2 B row 479 (dsDNA) DNA 1: CACTTCCCCCAGCCTCTCTTTTTAATACGACAATAG DNA 2: CTATTGTCGTATTAAAAAGAGAGGCTGGGGGAAGTG		2920 PBM fluorescence, median of replicate spots
Table S3 B row 3344 (dsDNA) DNA 1: CCGAAGCCTGCGGTTTCATGTGGGAGCAAGCGGCCT DNA 2: AGGCCGCTTGCTCCCACATGAAACCGCAGGCTTCGG	37500 PBM fluorescence, median of replicate spots	

Binder	binding signal (RUNX1)	binding signal (ETS1)
Table S3 B row 1801 (dsDNA) DNA 1: ACTCTAACCGCAGTGACGTGGGACCTCCTCGGCAGG DNA 2: CCTGCCGAGGAGGTCCCACGTCACTGCGGTTAGAGT	46700 PBM fluorescence, median of replicate spots	
Table S3 B row 3235 (dsDNA) DNA 1: AAGTCAAAACCGCAAACGCTCAGTAAAAAAGACTCT DNA 2: AGAGTCTTTTTTACTGAGCGTTTGCGGTTTTGACTT	42400 PBM fluorescence, median of replicate spots	
Table S3 B row 3040 (dsDNA) DNA 1: GCCTTTTGTGGTTTGTACCACTGCCTGCCTTTTCTG DNA 2: CAGAAAAGGCAGGCAGTGGTACAAACCACAAAAGGC	17300 PBM fluorescence, median of replicate spots	
Table S2 B row 1042 (dsDNA) DNA 1: GGTCCGGATGTATAAAGCGCGGCCCCCTGGGGGGAG DNA 2: CTCCCCCCAGGGGGCCGCGCTTTATACATCCGGACC		2790 PBM fluorescence, median of replicate spots
Table S3 B row 3820 (dsDNA) DNA 1: TTTTGCGGTTTTTGATCTGGAAGCCACACAGCCTTA DNA 2: TAAGGCTGTGTGGCTTCCAGATCAAAAACCGCAAAA	57800 PBM fluorescence, median of replicate spots	
Table S3 B row 1072 (dsDNA) DNA 1: CTTCTTCTTGCGGTTTCAATCACAGTAAACAGACGT DNA 2: ACGTCTGTTTACTGTGATTGAAACCGCAAGAAGAAG	27500 PBM fluorescence, median of replicate spots	
Table S3 B row 3808 (dsDNA) DNA 1: GCCCTTCTTGCGGTTTTCATGGCAGGGTGTTAACAT DNA 2: ATGTTAACACCCTGCCATGAAAACCGCAAGAAGGGC	60800 PBM fluorescence, median of replicate spots	
Table S3 B row 1477 (dsDNA) DNA 1: TTCTTTGGTCAACCGCAAGCCTCTGCCGCGTCTCGC DNA 2: GCGAGACGCGGCAGAGGCTTGCGGTTGACCAAAGAA	37300 PBM fluorescence, median of replicate spots	
Table S3 B row 3458 (dsDNA) DNA 1: CTGATTGTGGTTTTGATTTGCAATTCCCTGATGATT DNA 2: AATCATCAGGGAATTGCAAATCAAAACCACAATCAG	25900 PBM fluorescence, median of replicate spots	
Table S3 B row 2433 (dsDNA) DNA 1: GGGTTTTGTGGTTAGCAAGTTCCAGCTCCCGTCGCA DNA 2: TGCGACGGGAGCTGGAACTTGCTAACCACAAAACCC	18900 PBM fluorescence, median of replicate spots	
Table S3 B row 3390 (dsDNA) DNA 1: TTTCATATTTGTGGTTTTGGTGTTGCCTCTTACACA DNA 2: TGTGTAAGAGGCAACACCAAAACCACAAATATGAAA	18800 PBM fluorescence, median of replicate spots	
Table S3 B row 278 (dsDNA) DNA 1: TAAGTGTTGTGGTTTTTTAGTTTACTGTTCAGTTGC DNA 2: GCAACTGAACAGTAAACTAAAAAACCACAACACTTA	20300 PBM fluorescence, median of replicate spots	
Table S3 B row 3657 (dsDNA) DNA 1: CCACCCAAAACCACAACCATTTGCCCCATCACTTTG DNA 2: CAAAGTGATGGGGCAAATGGTTGTGGTTTTGGGTGG	31700 PBM fluorescence, median of replicate spots	
Table S3 B row 1506 (dsDNA) DNA 1: GTTCCTGGTTTGTGGTTATGATTTGCTGTTTGCCTT DNA 2: AAGGCAAACAGCAAATCATAACCACAAACCAGGAAC	24200 PBM fluorescence, median of replicate spots	
Table S3 B row 2218 (dsDNA) DNA 1: TCCTTGCGGTTTGCTTTCGCCGTCTCCGAACCGAGG DNA 2: CCTCGGTTCGGAGACGGCGAAAGCAAACCGCAAGGA	30700 PBM fluorescence, median of replicate spots	
Table S2 B row 3602 (dsDNA) DNA 1: TGTCGGGCGGATGTGTACCGGCGTTAATATAGTAAG DNA 2: CTTACTATATTAACGCCGGTACACATCCGCCCGACA		2800 PBM fluorescence, median of replicate spots
Table S2 B row 159 (dsDNA) DNA 1: GTAAAAGAGGAAGTAACACCTCCTTGACGTTGAGAC DNA 2: GTCTCAACGTCAAGGAGGTGTTACTTCCTCTTTTAC		2720 PBM fluorescence, median of replicate spots
Table S3 B row 2604 (dsDNA) DNA 1: CGGGTTAAACCGCAGCCGCGCCCACACTTTCGGGGT DNA 2: ACCCCGAAAGTGTGGGCGCGGCTGCGGTTTAACCCG	28100 PBM fluorescence, median of replicate spots	
Table S3 B row 272 (dsDNA) DNA 1: ACGAGGTTGCGGTTTCTCCACCTCCTCAACAACCTG DNA 2: CAGGTTGTTGAGGAGGTGGAGAAACCGCAACCTCGT	32700 PBM fluorescence, median of replicate spots	
Table S3 B row 2222 (dsDNA) DNA 1: CAGAAACCGCAGAACTGAGCTGACGACCCGGGAGTG DNA 2: CACTCCCGGGTCGTCAGCTCAGTTCTGCGGTTTCTG	42300 PBM fluorescence, median of replicate spots	
